From publication PMC7671685
Values joined by “and” are separate entries in the source; they are usually repeats but may differ in a detail not shown here. Identical values can stand only once.

Target: proinsulin 2 (mouse (endogenous in MIN6))
Test: non-reducing SDS-PAGE of immunoprecipitates (disulfide-linked forms) + mass spectrometry of the excised band; MIN6 cells treated with 50 µM olanzapine; pulse-chase, immunoprecipitation with anti-insulin #8138, non-reducing SDS-PAGE and autoradiography; for mass spectrometry cells were lysed in 1% NP40 with 10 mM NEM and the HMP-1 band was excised

stoichiometry N: 2 and 3
Substance: proinsulin 2 (natural protein)
